Experimental data reported in patent publication EP1724347A2.
Blank lines part the entries; values can stand above or below the substance they belong to.

Experiments:
GST-KIX = experiment: fluorescence polarization
[1] = molecular target: GST-hDM2 (residues 1-188) (human) (UniProt Q00987); experiment: fluorescence polarization, 25 nM labeled peptide with varying GST-hDM2, 4°C
[2] = molecular target: GST-hDM2 (residues 1-188) (human) (UniProt Q00987); experiment: 400 nM GST-hDM2 and 10 nM p53AD-Flu in the absence of pZutshi
[3] = molecular target: GST-hDM2 (residues 1-188) (human) (UniProt Q00987); experiment: fluorescence polarization, competition format
protein kinase A [4] = experiment: cell-based or functional assay
protein kinase A [5] = experiment: method not stated

Sequence of GST-hDM2 (residues 1-188) (human) (Q00987 1-188): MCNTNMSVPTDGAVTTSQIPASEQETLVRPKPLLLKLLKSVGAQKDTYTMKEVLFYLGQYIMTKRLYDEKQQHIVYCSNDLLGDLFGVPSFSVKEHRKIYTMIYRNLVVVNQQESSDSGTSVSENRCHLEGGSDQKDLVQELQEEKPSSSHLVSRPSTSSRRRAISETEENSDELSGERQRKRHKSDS
Sequence of GST-KIX (P45481 586-665): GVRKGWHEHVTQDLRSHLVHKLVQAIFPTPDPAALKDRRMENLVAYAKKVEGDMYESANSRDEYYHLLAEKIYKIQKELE

Kd (GST-KIX): 1.2 µM
Substance: Phosphorylated KID31 (peptide)

Kd [1]: 0.261 µM | percent bound [2]: 60%
Substance: p53AD-Flu (peptide)

Kd [3]: 1200 µM
Substance: p53AD peptide (residues 15-33), not labeled

Kd (GST-KIX): 48 µM
Substance: Phosphorylated KID20 (peptide)

IC50 (inhibition of PKA) (protein kinase A [4]): 0.008 µM | Kd (protein kinase A [5]): 0.0312 µM
Substance: PKI (peptide)
